From PMC12084609, “Structural insights into small-molecule agonist recognition and activation of complement receptor C3aR” (The EMBO Journal, 2025)
Residue numbers refer to the chain shown, from its start. “And” between values parts separate entries of the source, which are not always exact repeats. Equal values may be shown once. Read-outs that look alike come from different tables or passages of the source.

Key:
Format in all cases: cell-based
[1] = molecular target: T1, C3aR R340^5.42A (Homo sapiens, UniProt Q16581, R340A); assay: GloSensor-based cAMP assay, C3aR mutant R340A; details: for ΔpIC50 ± SE of Diff.: R340^5.42A relative to WT C3aR; for cAMP response (% Forskolin): R3405.42A
T1 construct: expressed in transfected cells; host or cells: HEK293T
T1 sequence (Q16581 1-482 R340A): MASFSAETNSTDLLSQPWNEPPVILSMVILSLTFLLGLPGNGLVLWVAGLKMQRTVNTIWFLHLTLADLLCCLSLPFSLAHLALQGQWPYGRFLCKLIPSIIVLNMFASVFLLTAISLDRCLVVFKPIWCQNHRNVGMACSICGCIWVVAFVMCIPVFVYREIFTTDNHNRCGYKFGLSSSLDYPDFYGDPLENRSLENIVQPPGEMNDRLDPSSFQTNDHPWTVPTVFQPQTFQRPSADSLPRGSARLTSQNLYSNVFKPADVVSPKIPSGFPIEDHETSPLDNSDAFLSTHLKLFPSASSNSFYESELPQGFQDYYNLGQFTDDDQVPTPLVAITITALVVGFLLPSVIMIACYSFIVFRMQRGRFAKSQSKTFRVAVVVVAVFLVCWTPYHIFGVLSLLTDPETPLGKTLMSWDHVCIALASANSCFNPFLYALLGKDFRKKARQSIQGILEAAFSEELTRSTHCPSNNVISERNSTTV
Protocol: (§1) HEK293T cells were seeded on 6-well plates (NEST) and transfected with pGlosensor™-22F plasmids (Promega) and pcDNA3.1 plasmids encoding C3aR or its mutants an with N-terminal FLAG tag. After 48 h, cells were detached with Accutase solution (Sigma-Aldrich) and washed with PBS, and resuspended in assay buffer (CO2-independent medium with 0.5 mg mL^−1D-luciferin). 100,000–200,000 cells were seeded on 96-well white bottom plates (SPL) and incubated at 37 °C for 45 min followed by 45 min incubation at room temperature. After 90 min of incubation, basal luminescence signals were recorded. In total, 25 μl of test ligand with various concentrations and 1 μM Forskolin (Sigma-Aldrich) were treated to the cells and luminescence signals were measured by Tristar 2 LB 942 multimode reader (Berthold). […] Relative luminescence unit (%) was calculated with the signal of wells treated with vehicle as 0% and the signal of wells treated with 1 μM Forskolin as 100% (DiRaddo et al, [2014]). Nonlinear regression was performed using a three-parameter logistic equation.

[2] = molecular target: T2, C3aR Y174^ECL2A (Homo sapiens, UniProt Q16581, Y174A); assay: GloSensor-based cAMP assay, C3aR mutant Y174A; details: for Mean Diff. of pIC50, WT vs. Y174A: Dunnett's multiple comparisons test, WT minus mutant; for cAMP response (% Forskolin): Y174ECL2A; for ΔpIC50 ± SE of Diff.: Y174^ECL2A relative to WT C3aR
T2 construct: expressed in transfected cells; host or cells: HEK293T
T2 sequence (Q16581 1-482 Y174A): T1 sequence (Q16581 1-482 R340A) with Y174A, A340R
Protocol: as §1

[3] = molecular target: T3, C3aR L30^1.39A (Homo sapiens, UniProt Q16581, L30A); assay: GloSensor-based cAMP assay, C3aR mutant L30A; details: for Mean Diff. of pIC50, WT vs. L30A: Dunnett's multiple comparisons test, WT minus mutant; for ΔpIC50 ± SE of Diff.: L30^1.39A relative to WT C3aR; for cAMP response (% Forskolin): L301.39A
T3 construct: expressed in transfected cells; host or cells: HEK293T
T3 sequence (Q16581 1-482 L30A): T1 sequence (Q16581 1-482 R340A) with L30A, A340R
Protocol: as §1

[4] = Log[C3a (M)] -7, single replicates
[5] = Log[C3a (M)] -8, single replicates
[6] = Log[C3a (M)] -9, single replicates
[7] = Log[C3a (M)] -10, single replicates
[8] = Log[C3a (M)] -11, single replicates
[9] = Log[C3a (M)] -12, single replicates

## C3a: anaphylatoxin C3a, natural peptide ligand of C3aR (a 77-amino acid peptide), Sigma-Aldrich
[1]
  ΔpIC50 ± SE of Diff.: -1.39 ± 0.06
[1]; R340^5.42A, dose-response plot, read-out: IC50
  IC50: 47 nM
[1]; R340^5.42A, individual replicates
  pIC50 (Replicate): 7.31 and 7.68 and 7.02 and 6.95
[1]; R340^5.42A, mean of independent experiments
  pIC50 ± SEM (Mean): 7.21
[1]; [4]
  cAMP response (% Forskolin): 25.35 % Forskolin and 26.64 % Forskolin and 21.46 % Forskolin and 37.94 % Forskolin and 13.15 % Forskolin and 37.80 % Forskolin
[1]; [5]
  cAMP response (% Forskolin): 77.37 % Forskolin and 75.03 % Forskolin and 71.05 % Forskolin and 86.28 % Forskolin and 86.11 % Forskolin and 85.37 % Forskolin
[1]; [6]
  cAMP response (% Forskolin): 91.29 % Forskolin and 112.12 % Forskolin and 107.73 % Forskolin and 93.95 % Forskolin and 109.05 % Forskolin and 100.87 % Forskolin
[1]; [7]
  cAMP response (% Forskolin): 92.00 % Forskolin and 91.42 % Forskolin and 98.18 % Forskolin and 91.19 % Forskolin and 108.32 % Forskolin and 87.99 % Forskolin
[1]; [8]
  cAMP response (% Forskolin): 98.26 % Forskolin and 112.91 % Forskolin and 108.63 % Forskolin and 92.51 % Forskolin and 96.75 % Forskolin and 86.60 % Forskolin
[1]; [9]
  cAMP response (% Forskolin): 94.72 % Forskolin and 95.53 % Forskolin and 102.57 % Forskolin and 99.30 % Forskolin and 100.29 % Forskolin and 108.61 % Forskolin
[2]
  Mean Diff. of pIC50, WT vs. Y174A: 0.586
  ΔpIC50 ± SE of Diff.: -0.59 ± 0.09
[2]; [4]
  cAMP response (% Forskolin): 9.91 % Forskolin and 12.64 % Forskolin and 15.55 % Forskolin and 17.18 % Forskolin and 6.28 % Forskolin
[2]; [5]
  cAMP response (% Forskolin): 29.94 % Forskolin and 34.61 % Forskolin and 37.29 % Forskolin and 78.77 % Forskolin and 47.80 % Forskolin
[2]; [6]
  cAMP response (% Forskolin): 93.29 % Forskolin and 98.24 % Forskolin and 97.28 % Forskolin and 106.07 % Forskolin and 106.88 % Forskolin
[2]; [7]
  cAMP response (% Forskolin): 95.65 % Forskolin and 102.82 % Forskolin and 100.47 % Forskolin and 102.58 % Forskolin and 97.30 % Forskolin
[2]; [8]
  cAMP response (% Forskolin): 98.42 % Forskolin and 110.81 % Forskolin and 110.05 % Forskolin and 103.42 % Forskolin and 89.46 % Forskolin
[2]; [9]
  cAMP response (% Forskolin): 91.57 % Forskolin and 98.11 % Forskolin and 107.79 % Forskolin and 100.25 % Forskolin and 103.20 % Forskolin
[2]; Y174^ECL2A, dose-response plot, read-out: IC50
  IC50: 8.35 nM
[2]; Y174^ECL2A, individual replicates
  pIC50 (Replicate): 8.26 and 8.28 and 8.32 and 7.39 and 7.92
[2]; Y174^ECL2A, mean of independent experiments
  pIC50 ± SEM (Mean): 8.04
[3]
  Mean Diff. of pIC50, WT vs. L30A: -0.019
  ΔpIC50 ± SE of Diff.: 0.019 ± 0.009
[3]; L30^1.39A, dose-response plot, read-out: IC50
  IC50: 2.77 nM
[3]; L30^1.39A, individual replicates
  pIC50 (Replicate): 8.56 and 8.70 and 8.57 and 8.44
[3]; L30^1.39A, mean of independent experiments
  pIC50 ± SEM (Mean): 8.57 ± 0.05 and 8.57
[3]; [4]
  cAMP response (% Forskolin): 9.08 % Forskolin and 11.83 % Forskolin and 11.69 % Forskolin and 11.40 % Forskolin
[3]; [5]
  cAMP response (% Forskolin): 10.54 % Forskolin and 13.47 % Forskolin and 12.71 % Forskolin and 14.92 % Forskolin
[3]; [6]
  cAMP response (% Forskolin): 79.63 % Forskolin and 73.91 % Forskolin and 80.93 % Forskolin and 94.77 % Forskolin
[3]; [7]
  cAMP response (% Forskolin): 98.57 % Forskolin and 99.49 % Forskolin and 94.04 % Forskolin and 99.72 % Forskolin
[3]; [8]
  cAMP response (% Forskolin): 93.76 % Forskolin and 102.28 % Forskolin and 98.92 % Forskolin (2×)
[3]; [9]
  cAMP response (% Forskolin): 93.05 % Forskolin and 98.36 % Forskolin and 95.43 % Forskolin and 98.17 % Forskolin

## Cc1cc(C(c2ccc(Cl)cc2)c2ccc(Cl)cc2)sc1C(=O)N[C@@H](CCCNC(=N)N)C(=O)O [JR14a, reference compound]
[1]; Dunnett's multiple comparisons test, WT minus mutant
  Mean Diff. of pIC50, WT vs. R340A: 2.282
[1]; IC50, R340^5.42A, dose-response plot
  IC50: 478 nM
[1]; R340A, Log[JR14a (M)] -6, single replicates, read-out: cAMP response (% Forskolin)
  remaining activity at 1 µM: 78.9%
[1]; R340A, Log[JR14a (M)] -7, single replicates, read-out: cAMP response (% Forskolin)
  remaining activity at 0.1 µM: 99.9%
[1]; R340A, Log[JR14a (M)] -10, single replicates, read-out: cAMP response (% Forskolin)
  remaining activity at 0.0001 µM: 105%
[1]; R340A, Log[JR14a (M)] -11, single replicates, read-out: cAMP response (% Forskolin)
  remaining activity at 10 pM: 104%
[1]
  ΔpIC50 ± SE of Diff.: -2.28 ± 0.14
[1]; pIC50 ± SEM (Mean), R340^5.42A, mean of independent experiments
  IC50: 537 nM
[2]
  Mean Diff. of pIC50, WT vs. Y174A: -0.215
  ΔpIC50 ± SE of Diff.: 0.22 ± 0.09
[2]; IC50, Y174^ECL2A, dose-response plot
  IC50: 1.61 nM
[2]; Y174A, Log[JR14a (M)] -6, single replicates, read-out: cAMP response (% Forskolin)
  remaining activity at 1 µM: 10.9%
[2]; Y174A, Log[JR14a (M)] -7, single replicates, read-out: cAMP response (% Forskolin)
  remaining activity at 0.1 µM: 11.8%
[2]; Y174A, Log[JR14a (M)] -8, single replicates, read-out: cAMP response (% Forskolin)
  remaining activity at 0.01 µM: 40.7%
[2]; Y174A, Log[JR14a (M)] -10, single replicates, read-out: cAMP response (% Forskolin)
  remaining activity at 0.0001 µM: 95.8%
[2]; Y174A, Log[JR14a (M)] -11, single replicates, read-out: cAMP response (% Forskolin)
  remaining activity at 10 pM: 106%
[2]; Y174^ECL2 to Ala, relatively mild effect on downstream signaling
  decrease in IC50 values vs WT: < 10 fold
[2]; pIC50 (Replicate), Y174^ECL2A, individual replicates
  IC50: 3.63 nM and 1.55 nM and 0.871 nM
[2]; pIC50 ± SEM (Mean), Y174^ECL2A, mean of independent experiments
  IC50: 1.7 nM
[3]
  Mean Diff. of pIC50, WT vs. L30A: 0.012
  ΔpIC50 ± SE of Diff.: -0.01 ± 0.01
[3]; IC50, L30^1.39A, dose-response plot
  IC50: 5.58 nM
[3]; L30A, Log[JR14a (M)] -6, single replicates, read-out: cAMP response (% Forskolin)
  remaining activity at 1 µM: 12.9%
[3]; L30A, Log[JR14a (M)] -7, single replicates, read-out: cAMP response (% Forskolin)
  remaining activity at 0.1 µM: 13.4%
[3]; L30A, Log[JR14a (M)] -9, single replicates, read-out: cAMP response (% Forskolin)
  remaining activity at 0.001 µM: 82.6%
[3]; L30A, Log[JR14a (M)] -10, single replicates, read-out: cAMP response (% Forskolin)
  remaining activity at 0.0001 µM: 97.9%
[3]; L30A, Log[JR14a (M)] -11, single replicates, read-out: cAMP response (% Forskolin)
  remaining activity at 10 pM: 98.1%
[3]; pIC50 (Replicate), L30^1.39A, individual replicates
  IC50: 8.91 nM and 6.92 nM
[3]; pIC50 ± SEM (Mean), L30^1.39A, mean of independent experiments
  IC50: 5.37 nM
[3]; read-out: pIC50 (Replicate) (converted)
  IC50: 2.51 nM
